The values that follow come from the nanobody polyreactivity screen of Harvey et al. (2022).

The data set in a line: yeast display, Sf9 membrane polyspecificity reagent, FACS + sequencing; frameworks hold sequencing errors. In short, it runs like this:
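Nanobodies from a synthetic yeast display library (Saccharomyces cerevisiae BJ5465), induced 36–48 hours with galactose, were stained 1 hour at 4 °C with 10% biotinylated, detergent-solubilized Sf9 membrane reagent, enriched on streptavidin microbeads, then FACS-sorted. Anti-HA (expression) and streptavidin (reagent binding) fluorescence set low and high (top ~1%) gates. Polyreactivity labels come from the gate of origin. Genes were colony-PCR amplified, MiSeq 2 × 250 sequenced and filtered by CDR length.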
For “QVQLVESGGGLVQAGGSLRLSCAASGRIFAFYARGSSRQAPGKERQLVAVISKSGGTTYYADSVKGRFTISRDNAKNTVYLQMNSLKPEDTAVYYCNKRVFYRHGYSYNYWGQGTQVTVSS”, the “polyreactivity (PSR sort gate)” value is on record as “high polyreactivity”.
With “QVQLVESGGGLVQAGGSLRLSCAASGRIFAGYALGWYRPAPGKERELVATSTRGGSTNYADSVKRPFTISRDNAKNTVYLQMNSLKPEDTAVYYCAAPYSSYKVRPYDYWGQGTQVTVSS”, the “polyreactivity (PSR sort gate)” value is listed as “low polyreactivity”.
For the sequence “QVQLVESGGGLVQAGGSLRLSCAASGRIFAHYAMGWYRQAPGKERELVADITDGGSTYYADSVKGRFTISRDNAKNTVYLQMNSLKPEDTAVYYCATRRGPWPSEYDSWGQGTQVTVSS”, the “polyreactivity (PSR sort gate)” value is listed as “low polyreactivity”.
For the sequence “QVQLVESGGGLVQAGGSLRLSCAASGRIFAKNVMGWYRQGPGKEWELVAAISRSGGSTYYADSVKGRFSISRDNAKNTVYLQMNSLKPEDTAVSYCGAYYGPDSARYYGGYEYWGQGTQVTVSS”, the “polyreactivity (PSR sort gate)” value is recorded as “high polyreactivity”.
The entry for “QVQLVESGGGLVQAGGSLRLSCAASGRIFALNAMVWYRQAPGKERELVAAITWGGGSTYYADSVKGRFTISRDNAKNTVYLQMNSLKPEDTAVYYCAADVPSRVYTVISVEVEYWGQGTQVTVSS” is “low polyreactivity”.
The entry for “QVQLVESGGGLVQAGGSLRLSCAASGRIFANYARGWYRQAPGKERELVAAITASGGSTYYADSVKGRFTISRVNAKNTVYLQMNSLKPEDTAGYYCAKGYRLYTMYSWGQGTQVTVSS” is “high polyreactivity”; for “QVQLVESGGGLVQAGGSLRLSCAASGRIFAPYAMGWYRQAPGKEREFVATITHSGGRTYYADSVKGRFTISRDNAKNNVYLQMNSLKPEHTAVYYCAAGYGYNRLYYGVDYWGQGTQVTVSS” it is “low polyreactivity”; for “QVQLVESGGGLVQAGGSLRLSCAASGRIFAPYAMGWYRQAPGKERELVAAITRGGITNYADSVKGRFTISRDNAKNTVYLQMNSLKPEDSAVYYCETVVNRRGFYQYFYWGQGTQVTVSS” it is “high polyreactivity”.
Consider “QVQLVESGGGLVQAGGSLRLSCAASGRIFAPYAMGWYRQAPGKEWQLVAAIRTSGGRTYYADSVKGRFTISRDNAKNTVYLQMNSLKPEDSAVYYCAPLAWSTGRTTTVYDYWGLGTQVTVSS”, for which the “polyreactivity (PSR sort gate)” value was “high polyreactivity”.
Consider “QVQLVESGGGLVQAGGSLRLSCAASGRIFARNVMGWYRQAPGKERELVAGISRSGGTTYYADSVKGRFTISRDNAKNTVYLQMNSLKPEDTAVYYCAAYYFLENDYWGPGTQVTVSS”, for which the “polyreactivity (PSR sort gate)” value is on record as “high polyreactivity”.
The value for “QVQLVESGGGLVQAGGSLRLSCAASGRIFARYAMGWYRQAPGKERELVAAISFRGGSTYYADSVKGRFTISRDNAKNTVYLQMNSLKPEDTAVYYCAARFGGWDRGLDYWGQGTQVTVSS” was “high polyreactivity”; that for “QVQLVESGGGLVQAGGSLRLSCAASGRIFARYAMGWYRQAPGKERELVAAISFRGGSTYYADSVKGRFTISRDNAKNTVYLQMNSQKPEDTAVYYCNGRYGRGGYDYWGQGTQVTVSS” was “high polyreactivity”.
For the sequence “QVQLVESGGGLVQAGGSLRLSCAASGRIFARYAMGWYRQAPGKERELVAAISFRGGSTYYADSVKGRFTISRDNAQNTVYLPMNSLKPEDTAVYYCNARYGRGGYDYWGQGTQVSVSS”, the “polyreactivity (PSR sort gate)” value was “high polyreactivity”.
For “QVQLVESGGGLVQAGGSLRLSCAASGRIFARYAMGWYRQAPGKERELVAAITTSGDSTYYADSVKGRFTISRDNAKNTVYLQMNSLKPEDTAVYYCAAERRYGRYYRLVRLLGQGTQVTVSS”, the “polyreactivity (PSR sort gate)” value is listed as “high polyreactivity”.
The entry for “QVQLVESGGGLVQAGGSLRLSCAASGRIFASYAMGWYRQAPGKERELVAAISLRGGSTYYADSVKGRFTISRDNAKNTVYLQMNSLKPEDTAVYYCAAYHPHGFDYYRYYYWGQGTQVTVSS” is “high polyreactivity”; for “QVQLVESGGGLVQAGGSLRLSCAASGRIFASYAMGWYRQAPGKERELVAAISLSGGSTYYADSVKGRFTISRDIAKNTVYLQMNSLKPEDTAVYYCAAKNYRRYRDYYWGQGTQVTVSS” it is “high polyreactivity”.
With “QVQLVESGGGLVQAGGSLRLSCAASGRIFASYAMGWYRQAPGKERELVAAISWSGGSTNYADSVKGRFTISRDNAKNTVYLQMNRLKPEDTAVYYCAKKKRRGYGYDYWGQGTQVTVSS”, the “polyreactivity (PSR sort gate)” value was “high polyreactivity”.
Consider “QVQLVESGGGLVQAGGSLRLSCAASGRIFASYAMGWYRQAPGKERELVASISWGGGSRTYADSVKGRFTISRDNAKNTVYLQMNSLKPEDTAVYYCAADVHYTFGMDYWGQGTQVTVSS”, for which the “polyreactivity (PSR sort gate)” value is listed as “high polyreactivity”.
The entry for “QVQLVESGGGLVQAGGSLRLSCAASGRIFATNAMGLYRQAPGKERELVATITRSAGRTYYADSVKGRFTISRDNAKNTVYLQMNSLKPEDTAVYYCAASYWDTEPGYREYDYWGQGTQVTVSS” is “low polyreactivity”; for “QVQLVESGGGLVQAGGSLRLSCAASGRIFATNAMGWSRPAPGTERELVAGISDGGGSTYYAASVKGRFTISRDNAKNTVYLQMNRLKPEDTEVYYCAARVLDWRGDIHDSEYWGQGTQVTVSS” it is “low polyreactivity”.
In the case of “QVQLVESGGGLVQAGGSLRLSCAASGRIFATNARGWYRQAPGKERELVAVISSGGSTNYADSVKGRFTISRDNAKNTVYLQMNSLKPEDTAVYYCAASPGSRPTQPYDYWGQGTQVTVSS”, the “polyreactivity (PSR sort gate)” value was “low polyreactivity”.
For “QVQLVESGGGLVQAGGSLRLSCAASGRIFATYAMGWYRQAPGKERELVARITFTSGSTYYADSVKGRFTISRDNAKNTVYLQMNSLKPEDTAVYYCAAPWSVTRTSFDYWGQGTQVTVSS”, the “polyreactivity (PSR sort gate)” value is listed as “high polyreactivity”.
The value for “QVQLVESGGGLVQAGGSLRLSCAASGRIFAVNAMGWYRQAPGKERELVAAINGGGSTNYADSVKGRFTISRDNAKNTVYLQMNSLKPEDTAVYYCAADVGWRSQTRGYYWGQGTQVTVSS” was “high polyreactivity”.
Regarding “QVQLVESGGGLVQAGGSLRLSCAASGRIFAVYAMGWYRQAPGKEREFVAAISYSGGITYYADSVKGRFTISRDNAKNTVYLQMNSLIPEDTAVYYCNAYYYFWGQGTQVTVSS”, the “polyreactivity (PSR sort gate)” value is listed as “low polyreactivity”.
For the sequence “QVQLVESGGGLVQAGGSLRLSCAASGRIFAVYVMGWYRQAPGKERELVAAISQSGGRTYYADSVKGRFTISRDNAKNTVYLQMNSLITEDTAVYYCNTVTSRATNFSGLGYWGQGTQVTVSS”, the “polyreactivity (PSR sort gate)” value was “high polyreactivity”.
“QVQLVESGGGLVQAGGSLRLSCAASGRIFAWYAMGWYRQAPGKERELVAGISWIGGSTYYADSVKGRFTISRDNAKNTVYLQMNSLKPEDTAVYYCNARKKPGSRLDIIGYDYWGQGTQVTVSS”: the “polyreactivity (PSR sort gate)” value is recorded as “low polyreactivity”.
With “QVQLVESGGGLVQAGGSLRLSCAASGRIFAWYSMGWYRQAPGEERELVAGISWICGSTYNADSVKGRFTISRDNAKNTVYLQMNSLKPEDTAVYYCNARKKPGSLLDIIGYDYWGQGTQVTVSS”, the “polyreactivity (PSR sort gate)” value is “low polyreactivity”.
The entry for “QVQLVESGGGLVQAGGSLRLSCAASGRIFAWYVMGWYRQAPGKEREFVAAIRWRSGSTHYADSVKGRFTISRDNAKNTVYLQMNSLKPEDTAVYYCARDVHGLLDYWGQGTQVTVSS” is “high polyreactivity”; for “QVQLVESGGGLVQAGGSLRLSCAASGRIFAYNAMGWYRQAPGKERELVAAITRSGGSTYYADSVKGRFTISRDNAKNTVYLQMNSLKPEDTAVYYCAKRYSYYIDDYWGQGTQVTVSS” it is “low polyreactivity”; for “QVQLVESGGGLVQAGGSLRLSCAASGRIFAYYAMGWYRPAPGIERELVATIRGGGSTNYADSVKGRFTISRDNAKNTVYLQMNSLKPEATAVYYCAKPGAKWRGFDYWGLGTQVTVSS” it is “low polyreactivity”.
For the sequence “QVQLVESGGGLVQAGGSLRLSCAASGRIFAYYAMGWYRQAPGKDRELVATIRSGGDTNYADSVKGRFTISRDNAKNTVDIQMNSLKTEDTAVYYCNALYYWWYPHEYNYWGQGTQVTVSS”, the “polyreactivity (PSR sort gate)” value is reported as “low polyreactivity”.
For the sequence “QVQLVESGGGLVQAGGSLRLSCAASGRIFAYYAMGWYRQAPGKEREFLATITGRGGSTSYADSVKGRFTISRDNAKNTVYLQMNSLKPEDTAVYYCAKRVVVWYFGTGDYWVQGTQVTVSS”, the “polyreactivity (PSR sort gate)” value is “low polyreactivity”.
In the case of “QVQLVESGGGLVQAGGSLRLSCAASGRIFAYYAMGWYRQAPGKERELVAAITTNGGGTYYADSVKGRFTISRDNAKNTVYLQMNSLKPEDTAVYYCNAVKQRSSIFDYWGQGTQVTVSS”, the “polyreactivity (PSR sort gate)” value is given as “low polyreactivity”.
For “QVQLVESGGGLVQAGGSLRLSCAASGRIFAYYAMGWYRQAPGKERELVAAITWRGGRTYYADSVKGRFTISRDNAKTTVYLQMNSLKPEDTAVYYCAARGYYSTYKLATDDYWGQGTQVTVSS”, the “polyreactivity (PSR sort gate)” value is listed as “high polyreactivity”.
For the sequence “QVQLVESGGGLVQAGGSLRLSCAASGRIFAYYAMGWYRQAPGKERELVASISSSGVSTYYADSVKGRFTISRDNAKNTVYLQMNSLKPEDTAVYYCAARQFSWDSQRYRHRYDYWGQGTQVTVSS”, the “polyreactivity (PSR sort gate)” value is “high polyreactivity”.
In the case of “QVQLVESGGGLVQAGGSLRLSCAASGRIFAYYAMGWYRQAPGKERELVATIRSGGDTNYADSVKGRFTISRDNAKNTVYLQMNSLKPEDTAVYYCNALYDWWYPHEYNYWGQVTQVTVSS”, the “polyreactivity (PSR sort gate)” value is reported as “low polyreactivity”.
Consider “QVQLVESGGGLVQAGGSLRLSCAASGRIFAYYAMGWYRQAPGTERELVAAITRRSGGITYYADSVKGRFTISRDNAKNTVYLQMNSLKPEDTAVYYCAARYRLSGKYRFTYDYWGQGTQVTVSS”, for which the “polyreactivity (PSR sort gate)” value is listed as “high polyreactivity”.
“QVQLVESGGGLVQAGGSLRLSCAASGRIFAYYPMGWYRPAPGKERELVAAISRSGVSTYYADSVKGRFTISRDNAKNTVYLQMNSLKPEDTAVYYCAARWRSGFTSGDYWGQGTQVTVSS”: the “polyreactivity (PSR sort gate)” value is reported as “low polyreactivity”.
Regarding “QVQLVESGGGLVQAGGSLRLSCAASGRIFAYYSMGWYRQAPGKERELVAAISRSGVSTYYADSVKGRFTISRDNAKNTVYLLMNSLKPEDTAVYYCAARWRSGFTSGDFWGQGTQVTVSS”, the “polyreactivity (PSR sort gate)” value is reported as “low polyreactivity”.
With “QVQLVESGGGLVQAGGSLRLSCAASGRIFAYYTMGWYRQAPGKERELVATISGSGASTYYADSVKGRFTISRDNAKNTDYLQMNSLKPEDTAVYYCAATRFYATIYDYWGQGTQVTVSS”, the “polyreactivity (PSR sort gate)” value is given as “high polyreactivity”.
For “QVQLVESGGGLVQAGGSLRLSCAASGRIFAYYVMGWYRQAPGKERELVAVISGSGSSTYYADSVKGRFTISRDNAKNTVYLQMNSLKPEDTAVYYCAASIQLYRSFITREYWGQGTQVSVSS”, the “polyreactivity (PSR sort gate)” value is listed as “high polyreactivity”.
